# In US20140328853A1:
# Like-named read-outs stand apart in the source and are kept apart here.
# What was measured:
# [1] = molecular target: ADM (human or mouse not told for the control row of Table 3); test: cell-based or functional assay
# [2] = molecular target: human recombinant adrenomedullin receptor (CRLR+RAMP3) (human)
# [3] = molecular target: human recombinant adrenomedullin receptor (CRLR+RAMP3) (human); remark: listed apart in the source
Substance,Maximal inhibition of ADM bioactivity (ADM-Bioassay) (%) [1] [%],IC50 (read off the curve) [2] [µM],IC50 (read off the curve) [3] [µM]
Non specific mouse IgG (antibody),0,,
hADM 22-52 (on the sheet: antagonist) (peptide),,0.2,3
